Reference: paper doi:10.1101/577437 (bioRxiv, 2019)

Target: T1, RALA (residues 1-183) (UniProt P11233 1-183)
T1 sequence: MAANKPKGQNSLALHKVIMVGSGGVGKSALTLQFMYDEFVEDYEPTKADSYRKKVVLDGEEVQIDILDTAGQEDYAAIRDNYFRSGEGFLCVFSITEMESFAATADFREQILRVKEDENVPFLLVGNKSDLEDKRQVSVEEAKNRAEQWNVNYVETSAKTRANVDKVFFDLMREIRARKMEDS
Assay: NMR titration

B1: human RLIP76 RBD (residues 395-517) (domain or fragment)
chain: QAGIKEEIRRQEFLLNCLHRDLQGGIKDLSKEERLWEVQRILTALKRKLREAKRQECETKIAQEIASLSKEDVSKEEMNENEEVINILLAQENEILTEQEELLAMEQFLRRQIASEKEEIERL
B1: binds.
